125 sequences from the supplement of paper PMC9112550, “Optimization of the antimicrobial peptide Bac7 by deep mutational scanning” (BMC Biology, 2022) can be followed below.

In the data set the test system is Escherichia coli TOP10. The experiment in a line: shrunken log2 fold change of peptide-encoding DNA abundance (4.5 h post-induction vs induction); higher = less antimicrobial activity (less host growth inhibition). Conditions: time post-induction: 4.5 h; library: site-saturation at positions 5, 18, 19, 20.
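Note: peptides expressed intracellularly from a pBAD plasmid library in pooled LB shake-flask culture, induced with 0.3% L-arabinose, DNA abundance read by NGS, three biological replicates, DESeq2 with apeglm shrinkage.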

Turning to RRIRVRPPRLPRPRPRPPRNPRP, the “shrunken log2 fold change” value was 0.343.

For RRIRHRPPRLPRPRPRPCPHPRP, the “shrunken log2 fold change” value is -0.0102. With RRIRQRPPRLPRPRPRPDKVPRP the figure was -0.0238. The value for RRIRHRPPRLPRPRPRPCVDPRP was -0.184; that for RRIRFRPPRLPRPRPRPTQKPRP was 0.94; that for RRIRIRPPRLPRPRPRPQELPRP was -0.169. With RRIRRRPPRLPRPRPRPQVLPRP the figure was 0.0646; with RRIRGRPPRLPRPRPRPQHCPRP, 0.0523; with RRIRLRPPRLPRPRPRPCFWPRP, 0.14. On to RRIRKRPPRLPRPRPRPTFPPRP, for which the “shrunken log2 fold change” value was 0.0736. With RRIRVRPPRLPRPRPRPEYLPRP, the “shrunken log2 fold change” value is -0.191. With RRIRLRPPRLPRPRPRPNWYPRP the figure was -0.771; with RRIRERPPRLPRPRPRPDAGPRP, -0.0396; with RRIRQRPPRLPRPRPRPYYKPRP, -0.962.

RRIRLRPPRLPRPRPRPFECPRP: the “shrunken log2 fold change” value is -0.345. The value for RRIRERPPRLPRPRPRPHTIPRP was -0.217; that for RRIRIRPPRLPRPRPRPFKNPRP was -0.188; that for RRIRYRPPRLPRPRPRPIPQPRP was -0.0934. With RRIRSRPPRLPRPRPRPKMPPRP the figure was 0.0106; with RRIRLRPPRLPRPRPRPAGNPRP, 0.116. With RRIRQRPPRLPRPRPRPGTDPRP the figure was -0.0507; with RRIRMRPPRLPRPRPRPLATPRP, 2.2. As to RRIRRRPPRLPRPRPRPWINPRP, the “shrunken log2 fold change” value is -0.37. The value for RRIRCRPPRLPRPRPRPPNKPRP was -0.0142; that for RRIRRRPPRLPRPRPRPPSLPRP was 0.522; that for RRIRVRPPRLPRPRPRPGIVPRP was 0.106. The value for RRIRYRPPRLPRPRPRPYWYPRP was -0.322; that for RRIRMRPPRLPRPRPRPIACPRP was 0.106. In the case of RRIRFRPPRLPRPRPRPGYFPRP, the “shrunken log2 fold change” value is -0.278. The value for RRIRQRPPRLPRPRPRPPRVPRP was 0.422; that for RRIRNRPPRLPRPRPRPREAPRP was 0.00436; that for RRIRSRPPRLPRPRPRPWRTPRP was 0.311.

Turning to RRIRCRPPRLPRPRPRPALVPRP, the “shrunken log2 fold change” value was 0.281. With RRIRVRPPRLPRPRPRPNTEPRP the figure was -0.665. In the case of RRIRWRPPRLPRPRPRPRRAPRP, the “shrunken log2 fold change” value is 0.737. With RRIRLRPPRLPRPRPRPMCPPRP the figure was 0.128; with RRIRWRPPRLPRPRPRPQTFPRP, -0.293; with RRIRSRPPRLPRPRPRPIFHPRP, -0.29. With RRIRKRPPRLPRPRPRPSTYPRP the figure was -0.0529. With RRIRMRPPRLPRPRPRPLMRPRP the figure was 1.16. Regarding RRIRPRPPRLPRPRPRPHGNPRP, the “shrunken log2 fold change” value was -0.654. The value for RRIRMRPPRLPRPRPRPRYTPRP was 0.338.

Turning to RRIRFRPPRLPRPRPRPAHAPRP, the “shrunken log2 fold change” value turned out to be 0.0606. Regarding RRIRNRPPRLPRPRPRPVLYPRP, the “shrunken log2 fold change” value is -0.374. The value for RRIRWRPPRLPRPRPRPWKQPRP was 0.296; that for RRIRTRPPRLPRPRPRPSMWPRP was 0.103; that for RRIRIRPPRLPRPRPRPMHYPRP was -0.434.

RRIRKRPPRLPRPRPRPKITPRP: the “shrunken log2 fold change” value came out at 0.0975. With RRIRKRPPRLPRPRPRPGCPPRP the figure was 0.0566; with RRIRNRPPRLPRPRPRPMDTPRP, -0.141; with RRIRCRPPRLPRPRPRPYYKPRP, -0.992. The value for RRIRHRPPRLPRPRPRPCCMPRP was -0.43; that for RRIRNRPPRLPRPRPRPTFFPRP was -0.139.

For the sequence RRIRYRPPRLPRPRPRPATGPRP, the “shrunken log2 fold change” value stood at 0.337. With RRIRGRPPRLPRPRPRPNKLPRP the figure was -0.096; with RRIRCRPPRLPRPRPRPNWQPRP, -0.145; with RRIRNRPPRLPRPRPRPRRAPRP, 0.604. With RRIRRRPPRLPRPRPRPKMDPRP the figure was -0.0711.

Take RRIRHRPPRLPRPRPRPPSNPRP: the “shrunken log2 fold change” value stood at 0.0232. Consider RRIRMRPPRLPRPRPRPVSDPRP, for which the “shrunken log2 fold change” value was 2.67. The value for RRIRRRPPRLPRPRPRPVFVPRP was 0.292; that for RRIRVRPPRLPRPRPRPSLLPRP was -0.23.

For the sequence RRIRVRPPRLPRPRPRPGHIPRP, the “shrunken log2 fold change” value is -0.028. With RRIRRRPPRLPRPRPRPTQKPRP the figure was 0.788; with RRIRRRPPRLPRPRPRPEPYPRP, 0.0302; with RRIRHRPPRLPRPRPRPWCPPRP, -0.402. With RRIRCRPPRLPRPRPRPDGYPRP the figure was -0.0404; with RRIRVRPPRLPRPRPRPGDYPRP, -0.0161; with RRIRLRPPRLPRPRPRPETNPRP, 0.467.

As to RRIRWRPPRLPRPRPRPYEYPRP, the “shrunken log2 fold change” value is -0.254. The value for RRIRIRPPRLPRPRPRPTRFPRP was 0.04; that for RRIRHRPPRLPRPRPRPATLPRP was -0.24.

On to RRIRNRPPRLPRPRPRPGVGPRP, for which the “shrunken log2 fold change” value was determined as 0.402. Regarding RRIRYRPPRLPRPRPRPRQGPRP, the “shrunken log2 fold change” value was -0.074. The value for RRIRGRPPRLPRPRPRPNGKPRP was 0.311; that for RRIRPRPPRLPRPRPRPDHMPRP was -0.33; that for RRIRFRPPRLPRPRPRPINNPRP was -0.683. With RRIRERPPRLPRPRPRPDQQPRP the figure was -0.278. RRIRWRPPRLPRPRPRPNIQPRP: the “shrunken log2 fold change” value is -0.0736. The value for RRIRMRPPRLPRPRPRPEVRPRP was 0.438; that for RRIRWRPPRLPRPRPRPAVQPRP was 0.792; that for RRIRGRPPRLPRPRPRPIIMPRP was -0.129. The value for RRIRNRPPRLPRPRPRPCLFPRP was -0.608.

Regarding RRIRLRPPRLPRPRPRPEQNPRP, the “shrunken log2 fold change” value amounted to 0.41.

In the case of RRIRIRPPRLPRPRPRPFPWPRP, the “shrunken log2 fold change” value is -0.519. With RRIRIRPPRLPRPRPRPQEWPRP the figure was -0.0108.

On to RRIRCRPPRLPRPRPRPWWHPRP, for which the “shrunken log2 fold change” value was -0.523. In the case of RRIRWRPPRLPRPRPRPSMLPRP, the “shrunken log2 fold change” value was -0.369.

On to RRIRARPPRLPRPRPRPCSEPRP, for which the “shrunken log2 fold change” value was 0.244. The value for RRIRCRPPRLPRPRPRPGMRPRP was 0.532; that for RRIRIRPPRLPRPRPRPAQTPRP was -0.0145; that for RRIRFRPPRLPRPRPRPTGYPRP was 0.0801. The value for RRIRARPPRLPRPRPRPRRIPRP was -0.0273.

For RRIRFRPPRLPRPRPRPHVGPRP, the “shrunken log2 fold change” value was -0.224. With RRIRSRPPRLPRPRPRPRWCPRP the figure was 0.051; with RRIRMRPPRLPRPRPRPEHMPRP, 0.147. With RRIRLRPPRLPRPRPRPTTIPRP the figure was 0.255.

Take RRIRWRPPRLPRPRPRPFKWPRP: the “shrunken log2 fold change” value is -0.223. With RRIRERPPRLPRPRPRPMPQPRP the figure was -0.201; with RRIRWRPPRLPRPRPRPCQTPRP, -0.0122. The value for RRIRMRPPRLPRPRPRPGAEPRP was 3.05. With RRIRRRPPRLPRPRPRPAQMPRP the figure was 0.161; with RRIRLRPPRLPRPRPRPEPTPRP, -0.00556; with RRIRIRPPRLPRPRPRPKTRPRP, -0.117. Regarding RRIRPRPPRLPRPRPRPTCTPRP, the “shrunken log2 fold change” value is 0.104. The value for RRIRMRPPRLPRPRPRPDNMPRP was 0.0905; that for RRIRMRPPRLPRPRPRPTSHPRP was 0.0149. With RRIRMRPPRLPRPRPRPPFWPRP the figure was 1.2; with RRIRVRPPRLPRPRPRPNSWPRP, 0.0957; with RRIRARPPRLPRPRPRPGCSPRP, 0.505.

Regarding RRIRWRPPRLPRPRPRPFEMPRP, the “shrunken log2 fold change” value is -0.116. The value for RRIRCRPPRLPRPRPRPDDLPRP was -0.118; that for RRIRGRPPRLPRPRPRPFPRPRP was 1.01; that for RRIRRRPPRLPRPRPRPGLYPRP was 0.305.

In the case of RRIRARPPRLPRPRPRPRANPRP, the “shrunken log2 fold change” value came out at 0.694. With RRIRWRPPRLPRPRPRPSNVPRP the figure was 0.108; with RRIRTRPPRLPRPRPRPYVIPRP, -1.03. With RRIRDRPPRLPRPRPRPSCQPRP the figure was 0.17; with RRIRPRPPRLPRPRPRPKGCPRP, 0.394; with RRIRTRPPRLPRPRPRPGEKPRP, -0.0135.

On to RRIRMRPPRLPRPRPRPGNSPRP, for which the “shrunken log2 fold change” value was -0.616. The value for RRIRNRPPRLPRPRPRPTFPPRP was -0.112. With RRIRHRPPRLPRPRPRPEMGPRP the figure was 0.00396. The value for RRIRTRPPRLPRPRPRPMPEPRP was 0.0253; that for RRIRIRPPRLPRPRPRPMPGPRP was -0.172.
